What was measured:
[1] = biological target: T1, LILRB4抗原 (人LILRB4蛋白胞外段) (human, UniProt Q8NHJ6 22-259); experiment: ELISA, coated LILRB4 100 ng/well, goat anti-mouse IgG-HRP detection
T1 construct: extracellular domain

[2] = biological target: T2, THP-1细胞表面的LILRB4 (human, UniProt Q8NHJ6 22-448); experiment: cell-based or functional assay
[3] = biological target: T3, LILRB2 (UniProt Q8N423 22-460, limits assumed); experiment: ELISA, coated LILR family protein, antibody at 50 μg/mL
[4] = biological target: T4, LILRA3 (UniProt Q8N6C8 24-439); experiment: as above
T4 sequence (Q8N6C8 24-439 limits assumed): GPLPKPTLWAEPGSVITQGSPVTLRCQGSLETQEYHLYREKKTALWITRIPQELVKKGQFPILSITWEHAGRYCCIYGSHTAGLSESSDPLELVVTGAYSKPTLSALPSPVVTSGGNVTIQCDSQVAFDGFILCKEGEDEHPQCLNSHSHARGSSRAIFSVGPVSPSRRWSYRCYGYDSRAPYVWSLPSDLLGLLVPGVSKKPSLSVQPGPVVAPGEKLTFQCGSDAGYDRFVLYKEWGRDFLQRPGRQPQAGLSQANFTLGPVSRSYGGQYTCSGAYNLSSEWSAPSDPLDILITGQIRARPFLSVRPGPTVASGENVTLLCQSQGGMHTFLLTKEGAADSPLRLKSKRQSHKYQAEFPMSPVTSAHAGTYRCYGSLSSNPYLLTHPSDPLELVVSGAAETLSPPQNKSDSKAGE

[5] = biological target: T1, LILRB4抗原 (人LILRB4蛋白胞外段); experiment: as above
[6] = biological target: T5, LILRA2 (UniProt Q8N149 24-449, limits assumed); experiment: as above
T5 sequence (Q8N149 24-449 limits assumed): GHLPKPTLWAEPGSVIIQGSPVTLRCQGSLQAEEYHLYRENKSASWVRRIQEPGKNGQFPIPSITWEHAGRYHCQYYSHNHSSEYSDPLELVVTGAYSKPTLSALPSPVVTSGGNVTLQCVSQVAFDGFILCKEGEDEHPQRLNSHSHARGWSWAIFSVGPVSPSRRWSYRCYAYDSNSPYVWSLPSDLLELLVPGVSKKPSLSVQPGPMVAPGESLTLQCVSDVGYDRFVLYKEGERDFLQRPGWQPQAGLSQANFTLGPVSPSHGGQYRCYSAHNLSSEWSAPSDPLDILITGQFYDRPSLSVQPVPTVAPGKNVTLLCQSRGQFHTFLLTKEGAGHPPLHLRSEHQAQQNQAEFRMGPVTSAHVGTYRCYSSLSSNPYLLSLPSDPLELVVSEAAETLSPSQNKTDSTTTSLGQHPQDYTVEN

[7] = biological target: T6, LILRB1 (UniProt Q8NHL6 24-461, limits assumed); experiment: as above
T6 sequence (Q8NHL6 24-461 limits assumed): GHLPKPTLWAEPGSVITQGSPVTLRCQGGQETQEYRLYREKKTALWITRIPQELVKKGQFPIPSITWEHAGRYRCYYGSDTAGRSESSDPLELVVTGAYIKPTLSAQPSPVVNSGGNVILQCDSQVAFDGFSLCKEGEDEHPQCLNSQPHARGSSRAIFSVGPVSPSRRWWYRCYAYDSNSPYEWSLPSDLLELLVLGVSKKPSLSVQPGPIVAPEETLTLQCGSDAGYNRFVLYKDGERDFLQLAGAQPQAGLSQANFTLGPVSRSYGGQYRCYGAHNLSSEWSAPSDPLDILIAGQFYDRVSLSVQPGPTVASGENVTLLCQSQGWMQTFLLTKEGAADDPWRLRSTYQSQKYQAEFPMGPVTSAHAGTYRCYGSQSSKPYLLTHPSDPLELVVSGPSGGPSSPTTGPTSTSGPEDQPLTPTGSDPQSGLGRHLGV

[8] = biological target: T7, LILRB3 (UniProt O75022 24-443, limits assumed); experiment: as above
T7 sequence (O75022 24-443 limits assumed): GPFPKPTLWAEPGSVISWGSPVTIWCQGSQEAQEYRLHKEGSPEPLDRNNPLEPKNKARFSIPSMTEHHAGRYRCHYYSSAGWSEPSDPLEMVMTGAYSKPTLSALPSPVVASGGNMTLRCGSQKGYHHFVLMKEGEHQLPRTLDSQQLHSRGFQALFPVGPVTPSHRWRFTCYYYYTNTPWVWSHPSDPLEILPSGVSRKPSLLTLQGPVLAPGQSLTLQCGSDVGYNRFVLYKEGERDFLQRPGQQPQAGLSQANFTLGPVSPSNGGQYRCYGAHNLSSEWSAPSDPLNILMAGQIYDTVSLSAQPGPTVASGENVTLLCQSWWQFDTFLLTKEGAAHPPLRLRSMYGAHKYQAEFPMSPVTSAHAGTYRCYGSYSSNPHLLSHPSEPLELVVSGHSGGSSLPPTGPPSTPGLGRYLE

[9] = biological target: T8, LILRA6 (UniProt Q6PI73 24-447, limits assumed); experiment: as above
T8 sequence (Q6PI73 24-447 limits assumed): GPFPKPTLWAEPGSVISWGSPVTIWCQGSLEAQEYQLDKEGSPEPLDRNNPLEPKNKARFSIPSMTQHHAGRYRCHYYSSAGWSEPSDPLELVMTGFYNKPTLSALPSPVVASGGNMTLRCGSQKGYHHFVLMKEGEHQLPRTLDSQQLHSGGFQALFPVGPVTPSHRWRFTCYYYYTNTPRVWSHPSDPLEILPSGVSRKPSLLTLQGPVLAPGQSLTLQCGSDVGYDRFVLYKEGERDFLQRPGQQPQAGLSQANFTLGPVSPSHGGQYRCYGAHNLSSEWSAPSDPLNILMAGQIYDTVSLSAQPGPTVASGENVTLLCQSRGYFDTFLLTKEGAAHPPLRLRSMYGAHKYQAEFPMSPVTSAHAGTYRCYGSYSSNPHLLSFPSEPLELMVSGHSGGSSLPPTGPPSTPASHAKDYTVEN

[10] = biological target: T9, LILRA1 (UniProt O75019 17-461, limits assumed); experiment: as above
T9 sequence (O75019 17-461 limits assumed): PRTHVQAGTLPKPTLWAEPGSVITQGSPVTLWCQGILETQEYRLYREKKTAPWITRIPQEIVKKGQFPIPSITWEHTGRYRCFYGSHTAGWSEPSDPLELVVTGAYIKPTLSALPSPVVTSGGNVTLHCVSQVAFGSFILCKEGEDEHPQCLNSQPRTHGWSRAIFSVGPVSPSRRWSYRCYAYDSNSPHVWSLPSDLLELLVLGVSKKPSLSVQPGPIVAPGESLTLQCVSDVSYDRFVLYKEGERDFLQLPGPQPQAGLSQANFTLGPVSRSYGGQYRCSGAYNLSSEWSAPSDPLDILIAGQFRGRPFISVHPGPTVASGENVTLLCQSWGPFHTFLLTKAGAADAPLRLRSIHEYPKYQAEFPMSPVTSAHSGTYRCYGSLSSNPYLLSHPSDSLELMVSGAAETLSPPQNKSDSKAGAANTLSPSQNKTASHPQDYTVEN

[11] = biological target: T10, LILRB5 (UniProt O75023 24-458, limits assumed); experiment: as above
T10 sequence (O75023 24-458 limits assumed): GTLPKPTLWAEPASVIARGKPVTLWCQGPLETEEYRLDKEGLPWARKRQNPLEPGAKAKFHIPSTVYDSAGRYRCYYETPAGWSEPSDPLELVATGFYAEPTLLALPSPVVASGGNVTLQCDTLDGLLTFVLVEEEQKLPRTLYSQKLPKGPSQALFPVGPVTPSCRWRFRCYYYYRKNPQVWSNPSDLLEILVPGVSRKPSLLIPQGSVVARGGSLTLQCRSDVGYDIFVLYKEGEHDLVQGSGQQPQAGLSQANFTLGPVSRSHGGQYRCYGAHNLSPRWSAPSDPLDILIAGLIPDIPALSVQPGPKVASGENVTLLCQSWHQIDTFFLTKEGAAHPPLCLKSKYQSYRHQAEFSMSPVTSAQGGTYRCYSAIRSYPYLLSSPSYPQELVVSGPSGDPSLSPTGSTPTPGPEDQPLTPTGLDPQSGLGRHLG

[12] = biological target: T11, LILRA4 (UniProt P59901 24-446, limits assumed); experiment: as above
T11 sequence (P59901 24-446 limits assumed): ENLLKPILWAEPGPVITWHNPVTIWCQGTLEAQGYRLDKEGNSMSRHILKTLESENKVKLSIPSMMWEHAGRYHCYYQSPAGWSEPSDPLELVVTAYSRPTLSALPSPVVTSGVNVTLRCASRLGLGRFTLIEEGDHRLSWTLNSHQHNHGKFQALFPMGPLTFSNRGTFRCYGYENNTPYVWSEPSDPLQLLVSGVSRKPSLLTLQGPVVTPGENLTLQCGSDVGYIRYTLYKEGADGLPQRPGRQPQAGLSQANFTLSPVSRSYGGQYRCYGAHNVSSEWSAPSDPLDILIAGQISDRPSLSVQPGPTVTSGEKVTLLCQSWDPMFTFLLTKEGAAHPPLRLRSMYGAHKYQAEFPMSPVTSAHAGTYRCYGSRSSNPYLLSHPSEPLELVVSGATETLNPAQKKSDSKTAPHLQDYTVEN

[13] = biological target: T12, LILRA5 (UniProt A6NI73 42-268, limits assumed); experiment: as above
T12 sequence (A6NI73 42-268 limits assumed): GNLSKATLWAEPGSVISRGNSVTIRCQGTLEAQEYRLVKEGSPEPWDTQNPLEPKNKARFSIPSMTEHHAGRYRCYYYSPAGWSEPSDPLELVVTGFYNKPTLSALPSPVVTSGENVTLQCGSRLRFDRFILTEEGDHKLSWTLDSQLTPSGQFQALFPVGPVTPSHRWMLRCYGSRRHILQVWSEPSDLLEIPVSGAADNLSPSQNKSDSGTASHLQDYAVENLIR

[14] = biological target: T3, LILRB2; experiment: ELISA, coated LILR family protein 100 ng/well, single antibody concentration
[15] = biological target: T4, LILRA3; experiment: as above
[16] = biological target: T5, LILRA2; experiment: as above
[17] = biological target: T6, LILRB1; experiment: as above
[18] = biological target: T7, LILRB3; experiment: as above
[19] = biological target: T8, LILRA6; experiment: as above
[20] = biological target: T9, LILRA1; experiment: as above
[21] = biological target: T10, LILRB5; experiment: as above
[22] = biological target: T11, LILRA4; experiment: as above
[23] = biological target: T12, LILRA5; experiment: as above
[24] = biological target: T2, THP-1细胞表面的LILRB4; experiment: flow cytometry on THP-1 cells, FITC goat anti-mouse IgG detection
[25] = biological target: T2, THP-1细胞表面的LILRB4; experiment: flow cytometry competition on THP-1 cells; MD-Ⅰ titrated, competitor FITC-labelled ApoE at 0.4 μg/mL

T3 sequence (Q8N423 22-460 limits assumed): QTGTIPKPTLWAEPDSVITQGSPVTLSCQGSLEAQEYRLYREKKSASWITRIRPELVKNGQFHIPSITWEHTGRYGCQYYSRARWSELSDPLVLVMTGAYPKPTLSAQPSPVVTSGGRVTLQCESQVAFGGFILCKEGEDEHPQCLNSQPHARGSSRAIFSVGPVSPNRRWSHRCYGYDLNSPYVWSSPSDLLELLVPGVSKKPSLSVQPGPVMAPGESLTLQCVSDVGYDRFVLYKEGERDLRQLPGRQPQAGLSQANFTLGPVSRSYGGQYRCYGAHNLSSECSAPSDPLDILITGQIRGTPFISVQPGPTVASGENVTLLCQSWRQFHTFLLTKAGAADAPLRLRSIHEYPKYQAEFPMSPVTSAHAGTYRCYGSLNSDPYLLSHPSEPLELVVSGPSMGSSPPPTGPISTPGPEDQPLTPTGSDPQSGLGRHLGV

B1: 抗LILRB4单克隆抗体MD-Ⅰ (mouse IgG1 heavy chain constant region, mouse Ck light chain constant region) (antibody, V domains shown)
VH: EVQLQESGPQLVRPGTSVKLSCKASGYTFTNYWIHWVKQRPGQGLEWIGEINPTNGHTNYNEKFKSKATLTVDKSSSTAYMQLSSLTSEDSAVYYCARYTYDQDAMDYWGQGTSVTVSS
VL: DIVITQSTSSLSASLGDRVTISCRASQDISNYLNWYQQKPDGTVKLLIYYTSRLHSGVPSRFSGSGSGTDYSLTISNLEQEDIATYFCQQGNTLPPTFGGGTKLEIKA
notes: also called MD-I
EC50 [1]: 0.221 µg/mL
IC50 of inhibition of ARG1 secretion by THP-1 cells in the presence of ApoE (精氨酸酶活性检测) [2]: 310 µg/mL
OD 450nm/630nm [3]: 0.014
OD 450nm/630nm [4]: 0.028
OD 450nm/630nm [5]: 2.42
OD 450nm/630nm [6]: 0.054
OD 450nm/630nm [7]: 0.047
OD 450nm/630nm [8]: 0.015
OD 450nm/630nm [9]: 0.045
OD 450nm/630nm [10]: 0.075
OD 450nm/630nm [11]: 0.056
OD 450nm/630nm [12]: 0.156
OD 450nm/630nm [13]: 0.078
binding result [14]: no binding (tested: 50μg/mL)
binding result [15]: no binding (tested: 50μg/mL)
binding result [16]: no binding (tested: 50μg/mL)
binding result [17]: no binding (tested: 50μg/mL)
binding result [18]: no binding (tested: 50μg/mL)
binding result [19]: no binding (tested: 50μg/mL)
binding result [20]: no binding (tested: 50μg/mL)
binding result [21]: no binding (tested: 50μg/mL)
binding result [22]: no binding (tested: 50μg/mL)
binding result [23]: no binding (tested: 50μg/mL)
EC50 [24]: 5.09 µg/mL
IC50 [25]: 8.62 µg/mL
